# Measurements taken from patent US20220213176A1 (SHANGHAITECH UNIVERSITY, published 2022).
# B1: S-B8 (antibody, V domains shown)
# VH: QVQLVQSGGGLIQPGGSLRLSCAASGFTVSLSHMNWVRQAPGKGLEWVSITYGDGNSDYADSVKGRFTISRDNSKNTLYLQMNSLRAEDTAVYYCAREYYYGMDVWGQGTTVTVSS
# VL: not shown
# notes: also called S-B8 dimer
# B2: S-D4 (antibody, V domains shown)
# VH: QVQLQESGGGVVQPGRSLRLSCEVSGFTFSDYGMHWVRQAPGKGLEWVAVIWSEGSTEYYADSVKGRFTISRDNSKDTLYLQMNSLRAEDTAVYYCARPGYPTSTDRSPAAAGARQYYYYGMDVWGQGTTVTVSS
# VL: NFMLTQPHSVSESPGKTVTISCTRSGGSGAANYVQWYQQRPGSSPTTLIYEDSRRPPGVPDRFSGSVDTSSNSASLTISGLQTEDEADYYCQSYDSSNHVVFGGGTKLTVLG
# notes: also called S-D4 dimer; S-D4 IgG4
# B3: S-E6 (antibody, V domains shown)
# VH: QVTLRESGPGLVKPSETLSLTCAVSGGSLSSVNYYWSWIRQHPGKGLEWIGYIYYSGSTNYNPSLKSRVTMSLDTSKNQFSLKLSSVTAADTAVYYCATPGAIMGALHIWGQGTLVTVSS
# VL: QAVLTQPSSASSTPGQRVIISCSGSSSNIGSNTVSWYQQVPGAAPKLLIYFDYRRPSGVPDRFSGTRSGTSASLGISGLQSEDEADYYCAAWDDSLSAWVFGRGTKLTVLG
# notes: also called S-E6 dimer; dimer S-E6
# Target: spike of authentic SARS-CoV-2 virus BetaCoV/Australia/VIC01/2020 (SARS-CoV-2)
# Assay: cell-based or functional assay
row,Binder,"NT50, authentic virus B VIC01 neutralization [nM]"
1,B1,0.88
2,B2,2.04
3,B3,0.15

# Target: T1, HCoV-229E spike (HCoV-229E, UniProt P15423 16-1173)
# T1 construct: whole, on cells
# T1 sequence: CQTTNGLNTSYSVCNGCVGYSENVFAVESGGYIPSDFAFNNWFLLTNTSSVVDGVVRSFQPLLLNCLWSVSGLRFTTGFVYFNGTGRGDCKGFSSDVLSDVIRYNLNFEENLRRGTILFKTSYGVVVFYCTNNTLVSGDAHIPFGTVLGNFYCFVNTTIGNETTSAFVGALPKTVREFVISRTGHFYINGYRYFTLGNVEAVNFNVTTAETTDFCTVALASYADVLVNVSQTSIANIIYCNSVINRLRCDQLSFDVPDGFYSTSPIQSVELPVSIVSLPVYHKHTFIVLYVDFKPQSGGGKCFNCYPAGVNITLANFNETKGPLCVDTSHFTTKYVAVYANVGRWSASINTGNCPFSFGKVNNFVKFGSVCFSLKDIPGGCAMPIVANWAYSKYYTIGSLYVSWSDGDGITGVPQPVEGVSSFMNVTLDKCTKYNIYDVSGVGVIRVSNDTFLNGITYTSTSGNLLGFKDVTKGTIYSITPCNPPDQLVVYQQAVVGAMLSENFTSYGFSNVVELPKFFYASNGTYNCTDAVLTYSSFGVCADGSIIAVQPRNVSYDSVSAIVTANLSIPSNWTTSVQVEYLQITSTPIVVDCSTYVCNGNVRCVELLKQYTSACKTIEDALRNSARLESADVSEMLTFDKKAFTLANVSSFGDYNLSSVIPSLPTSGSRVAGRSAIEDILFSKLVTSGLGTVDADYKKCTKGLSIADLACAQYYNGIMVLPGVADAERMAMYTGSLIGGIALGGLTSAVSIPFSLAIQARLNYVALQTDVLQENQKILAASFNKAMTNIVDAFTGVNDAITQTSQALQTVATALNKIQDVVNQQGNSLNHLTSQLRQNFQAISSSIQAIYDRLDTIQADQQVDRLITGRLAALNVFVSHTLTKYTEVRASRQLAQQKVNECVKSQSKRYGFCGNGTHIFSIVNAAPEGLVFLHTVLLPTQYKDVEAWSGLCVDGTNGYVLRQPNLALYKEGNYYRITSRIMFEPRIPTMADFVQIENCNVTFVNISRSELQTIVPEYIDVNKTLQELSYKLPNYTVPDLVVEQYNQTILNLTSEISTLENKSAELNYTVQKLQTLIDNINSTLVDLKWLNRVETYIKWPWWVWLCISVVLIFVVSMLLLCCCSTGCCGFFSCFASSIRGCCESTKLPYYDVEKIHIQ
# Assay: FACS, transfected HEK293T cells, IgG4 antibody
row,Binder,binding result
1,B1,no binding
2,B2,no binding
3,B3,no binding

# Target: T2, HCoV-NL63 spike (HCoV-NL63, UniProt Q6Q1S2 19-1356)
# T2 construct: whole, on cells
# T2 sequence: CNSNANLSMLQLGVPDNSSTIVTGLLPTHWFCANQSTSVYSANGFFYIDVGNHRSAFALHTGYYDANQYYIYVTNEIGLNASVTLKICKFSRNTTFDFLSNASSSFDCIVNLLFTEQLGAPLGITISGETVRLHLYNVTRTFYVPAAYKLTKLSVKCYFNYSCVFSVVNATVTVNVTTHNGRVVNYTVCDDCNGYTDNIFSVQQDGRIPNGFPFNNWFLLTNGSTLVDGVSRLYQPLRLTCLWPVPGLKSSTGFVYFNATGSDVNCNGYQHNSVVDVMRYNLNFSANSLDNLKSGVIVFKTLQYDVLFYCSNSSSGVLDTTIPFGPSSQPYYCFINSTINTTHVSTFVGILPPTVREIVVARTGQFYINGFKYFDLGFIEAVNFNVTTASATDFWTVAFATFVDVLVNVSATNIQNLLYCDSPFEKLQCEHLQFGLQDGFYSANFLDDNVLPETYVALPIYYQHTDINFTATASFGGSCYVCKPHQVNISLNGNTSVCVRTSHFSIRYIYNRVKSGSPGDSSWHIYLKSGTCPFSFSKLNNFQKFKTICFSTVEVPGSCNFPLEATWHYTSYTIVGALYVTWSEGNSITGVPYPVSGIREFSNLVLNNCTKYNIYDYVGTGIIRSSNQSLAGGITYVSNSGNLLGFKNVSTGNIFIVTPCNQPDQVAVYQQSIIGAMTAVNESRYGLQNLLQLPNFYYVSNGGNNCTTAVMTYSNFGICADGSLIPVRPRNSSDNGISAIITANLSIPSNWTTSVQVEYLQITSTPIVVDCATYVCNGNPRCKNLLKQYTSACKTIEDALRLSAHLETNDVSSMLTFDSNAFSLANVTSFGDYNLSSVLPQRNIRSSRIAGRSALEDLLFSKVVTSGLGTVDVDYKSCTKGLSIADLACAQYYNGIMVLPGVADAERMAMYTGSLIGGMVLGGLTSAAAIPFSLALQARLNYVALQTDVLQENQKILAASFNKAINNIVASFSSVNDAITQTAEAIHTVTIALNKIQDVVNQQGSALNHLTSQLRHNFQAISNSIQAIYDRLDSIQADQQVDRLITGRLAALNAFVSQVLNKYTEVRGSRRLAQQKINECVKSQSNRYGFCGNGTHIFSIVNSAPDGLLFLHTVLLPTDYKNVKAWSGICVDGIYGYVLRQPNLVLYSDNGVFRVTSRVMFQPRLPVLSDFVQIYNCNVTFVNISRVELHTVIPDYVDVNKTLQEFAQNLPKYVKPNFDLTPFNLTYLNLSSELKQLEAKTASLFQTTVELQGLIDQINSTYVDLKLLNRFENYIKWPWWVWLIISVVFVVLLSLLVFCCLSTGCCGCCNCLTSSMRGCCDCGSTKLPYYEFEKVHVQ
# Assay: FACS, transfected HEK293T cells, IgG4 antibody
row,Binder,binding result
1,B1,no binding
2,B2,no binding
3,B3,no binding
